# Data reported in US20220089692A1.
# Target: SARS-CoV-2 Spike RBD-His Recombinant Protein (SARS-CoV-2) (UniProt P0DTC2)
# Assay: monoclonal phage ELISA, SPIKE RBD coated 200 ng/well; helper phage control
substance,measurement,value
M13KO7 auxiliary phage,ELISA signal (OD450),0.0434
